Where a chain is given by its changes, count along the chain named.
T1: Rv0081-S/Q-A S48A;S49A;S52A;Q53A (Mycobacterium tuberculosis) (UniProt P9WMI7)
T1 sequence: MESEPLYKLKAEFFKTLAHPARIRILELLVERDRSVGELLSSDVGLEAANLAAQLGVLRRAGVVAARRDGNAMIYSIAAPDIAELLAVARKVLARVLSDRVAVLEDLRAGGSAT

B1: Rv0081 transcription factor of Mycobacterium tuberculosis (natural protein)
chain: T1 sequence with A48S, A49S, A52S, A53Q

Columns and labels:
[1] = target: T1, Rv0081-S/Q-A S48A;S49A;S52A;Q53A (Mycobacterium tuberculosis); assay: SPR
SEC-MALS = target: the molecule itself; assay: SEC-MALS

Row | Molecule | Kd [1] [µM] | stoichiometry N (SEC-MALS)
1 | ATCCGCACTATCTGATAAATTCTTCAACTCGTC (double strand) [ds-Wt] | 19.6 | –
2 | B1 | – | 2

Source: paper doi:10.1101/465575 (bioRxiv, 2018)
